Values joined by “and” are separate entries in the source; they are usually repeats but may differ in a detail not shown here. Equal entries are not always repeated.
T1: GST-LdPEX3Δ1-42 (L. donovani PEX3 without the N-terminal predicted transmembrane domain, GST-tagged) (Leishmania donovani, UniProt A0A3Q8IW98 43-526)
T1 sequence: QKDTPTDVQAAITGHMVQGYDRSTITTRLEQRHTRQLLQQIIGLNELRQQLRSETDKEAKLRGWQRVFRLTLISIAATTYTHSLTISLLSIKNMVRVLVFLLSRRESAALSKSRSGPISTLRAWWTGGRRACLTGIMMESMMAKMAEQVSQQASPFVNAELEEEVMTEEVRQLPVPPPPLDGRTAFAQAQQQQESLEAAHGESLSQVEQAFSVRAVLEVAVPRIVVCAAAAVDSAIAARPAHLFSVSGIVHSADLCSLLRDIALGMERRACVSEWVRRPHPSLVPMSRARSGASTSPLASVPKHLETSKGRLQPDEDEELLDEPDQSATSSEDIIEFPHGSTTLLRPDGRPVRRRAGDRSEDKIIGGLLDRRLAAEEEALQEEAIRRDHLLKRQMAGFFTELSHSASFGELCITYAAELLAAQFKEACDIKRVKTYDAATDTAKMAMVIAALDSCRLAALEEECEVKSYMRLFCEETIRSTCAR


Tests used:
[1] = molecular target: GST-LdPEX3Δ1-42 (L. donovani PEX3 without the N-terminal predicted transmembrane domain, GST-tagged) (Leishmania donovani); test: AlphaScreen or HTRF
[2] = molecular target: T1, GST-LdPEX3Δ1-42 (L. donovani PEX3 …); test: AlphaScreen or HTRF
[3] = molecular target: T1, GST-LdPEX3Δ1-42 (L. donovani PEX3 …); test: ELISA

Row | Molecule | Kd [1] | Kd [2] | Kd [3]
1 | Tag-free LdPEX19 (from LdPEX19-T-His6 by thrombin cleavage) (natural protein) | 11.9 nM |  | 
2 | LdPEX19-His6 (C-terminally His6-tagged full-length L. donovani PEX19, pET21b) (natural protein) MSDDDLDALLDEAMDMVDEQERKHEEEVRVRDAKLEDDLQKALDEASGTAGGDADMMKMLMSMLGGDSADDASLDSFKKSVMTMVSSLEGEENLGEEDKANLLRVKELMRVMEEEDIDKANDLLEQMKQEGKLPDCNNVGDAEIDEASRRCMEMLQQLSSATQVGHLDPAATPGAASSSSAAPPAAPAGDGAEIPSEVGRATEAMASALISTLADPQFVEPIKLMRDSYGPYMDAHGSELSHEDCERYERQRAKAQEICDLLQNPISGAEDPRLIQLLELMNKYSELGDPPRNLVKYAPKNRKGVEECQ |  | 10.4 ± 2.57 nM | 10.6 nM and 10.5 nM

Reference: doi:10.1101/2024.09.13.612636 (bioRxiv, 2024)
